Experimental data reported in paper PMC2581593 (The Journal of Biological Chemistry, 2008).
Where a chain is given by its changes, count along the chain named. Names and notes keep the numbering of the source.

B1: syt 1 C2AB T328A (domain or fragment)
chain: KGGKNAINMKDVKDLGKTMKDQALKDDDAETGLTDGEEKEEPKEEEKLGKLQYSLDYDFQNNQLLVGIIQAAELPALDMGGTSDPYVKVFLLPDKKKKFETKVHRKTLNPVFNEQFTFKVPYSELGGKTLVMAVYDFDRFSKHDIIGEFKVPMNTVDFGHVTEEWRDLQSAEKEEQEKLGDICFSLRYVPTAGKLTVVILEAKNLKKMDVGGLSDPYVKIHLMQNGKRLKKKKATIKKNTLNPYYNESFSFEVPFEQIQKVQVVVTVLDYDKIGKNDAIGKVFVGYNSTGAELRHWSDMLANPRRPIAQWHTLQVEEEVDAMLAVKK
B2: syt 1 C2AB K313R/K325R/K327R (domain or fragment)
chain: B1 chain with K219R, K231R, K233R, A234T
B3: syt 1 C2AB E341A (domain or fragment)
chain: B1 chain with A234T, E247A

Target: t-SNARE heterodimer (mouse SNAP-25B and rat syntaxin 1A), reconstituted into vesicles (rat | mouse, UniProt P32851;P60879-1)
Assay: co-flotation

t-SNARE heterodimer (mouse SNAP-25B and rat syntaxin 1A), reconstituted into vesicles, sequence (P32851 whole entry, chain 1 of 2): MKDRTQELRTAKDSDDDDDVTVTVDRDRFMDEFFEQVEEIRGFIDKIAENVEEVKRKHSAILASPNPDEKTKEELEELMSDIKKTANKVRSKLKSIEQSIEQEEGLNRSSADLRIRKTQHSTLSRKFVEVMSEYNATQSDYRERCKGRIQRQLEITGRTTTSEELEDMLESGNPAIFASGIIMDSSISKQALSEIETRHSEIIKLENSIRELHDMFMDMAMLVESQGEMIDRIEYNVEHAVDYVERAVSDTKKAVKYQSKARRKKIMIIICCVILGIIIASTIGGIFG
t-SNARE heterodimer (mouse SNAP-25B and rat syntaxin 1A), reconstituted into vesicles, sequence (P60879 whole entry, chain 2 of 2): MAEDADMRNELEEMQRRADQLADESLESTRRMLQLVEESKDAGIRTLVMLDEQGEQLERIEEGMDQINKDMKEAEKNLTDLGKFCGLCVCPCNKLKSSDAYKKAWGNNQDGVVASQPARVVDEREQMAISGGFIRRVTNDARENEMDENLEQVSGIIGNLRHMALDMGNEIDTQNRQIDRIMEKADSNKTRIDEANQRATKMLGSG

| Binder | binding result |
| --- | --- |
| B1 | binds |
| B2 | binds |
| B3 | binds |
